Among the data in paper doi:10.1101/207928 are stoichiometry N values, retold here.

This assay deals with glycosylated full-length human insulin receptor isoform A (human) (UniProt P06213). As to the kind of experiment: negative-stain electron microscopy.

In general, stoichiometry N refers to the number of molecules, sites or subunits per partner or assembly. With “glycosylated full-length human insulin receptor isoform A (from UniProt P06213-2 28-1370)”, the stoichiometry N amounted to 2.
